Reference: PMC8137956, “Orphan GPR116 mediates the insulin sensitizing effects of the hepatokine FNDC4 in adipose tissue” (Nature Communications, 2021)

Key:
[1] = target: T1, human GPR116 with C-terminal fused FLAG, stably overexpressed (human, UniProt Q8IZF2 22-1346); test: flow cytometry on cells; saturation binding of FcsFNDC4 or Fc control on HEK293A cells with stable human GPR116-FLAG OE or mock cells; 4 °C, PBS with 3% FBS; anti-human IgG-PE; Kd from total binding; conditions: one partner purified
T1 construct: human GPR116, recombined from the pEntry1a GPR116 plasmid into plenti6/V5 DEST; Same construct in two HEK293 lines; also called GPR116 OE; HEK293T GPR116 (human) OE cells; not shown: FLAG, C-terminal, kept
T1 sequence (looked up): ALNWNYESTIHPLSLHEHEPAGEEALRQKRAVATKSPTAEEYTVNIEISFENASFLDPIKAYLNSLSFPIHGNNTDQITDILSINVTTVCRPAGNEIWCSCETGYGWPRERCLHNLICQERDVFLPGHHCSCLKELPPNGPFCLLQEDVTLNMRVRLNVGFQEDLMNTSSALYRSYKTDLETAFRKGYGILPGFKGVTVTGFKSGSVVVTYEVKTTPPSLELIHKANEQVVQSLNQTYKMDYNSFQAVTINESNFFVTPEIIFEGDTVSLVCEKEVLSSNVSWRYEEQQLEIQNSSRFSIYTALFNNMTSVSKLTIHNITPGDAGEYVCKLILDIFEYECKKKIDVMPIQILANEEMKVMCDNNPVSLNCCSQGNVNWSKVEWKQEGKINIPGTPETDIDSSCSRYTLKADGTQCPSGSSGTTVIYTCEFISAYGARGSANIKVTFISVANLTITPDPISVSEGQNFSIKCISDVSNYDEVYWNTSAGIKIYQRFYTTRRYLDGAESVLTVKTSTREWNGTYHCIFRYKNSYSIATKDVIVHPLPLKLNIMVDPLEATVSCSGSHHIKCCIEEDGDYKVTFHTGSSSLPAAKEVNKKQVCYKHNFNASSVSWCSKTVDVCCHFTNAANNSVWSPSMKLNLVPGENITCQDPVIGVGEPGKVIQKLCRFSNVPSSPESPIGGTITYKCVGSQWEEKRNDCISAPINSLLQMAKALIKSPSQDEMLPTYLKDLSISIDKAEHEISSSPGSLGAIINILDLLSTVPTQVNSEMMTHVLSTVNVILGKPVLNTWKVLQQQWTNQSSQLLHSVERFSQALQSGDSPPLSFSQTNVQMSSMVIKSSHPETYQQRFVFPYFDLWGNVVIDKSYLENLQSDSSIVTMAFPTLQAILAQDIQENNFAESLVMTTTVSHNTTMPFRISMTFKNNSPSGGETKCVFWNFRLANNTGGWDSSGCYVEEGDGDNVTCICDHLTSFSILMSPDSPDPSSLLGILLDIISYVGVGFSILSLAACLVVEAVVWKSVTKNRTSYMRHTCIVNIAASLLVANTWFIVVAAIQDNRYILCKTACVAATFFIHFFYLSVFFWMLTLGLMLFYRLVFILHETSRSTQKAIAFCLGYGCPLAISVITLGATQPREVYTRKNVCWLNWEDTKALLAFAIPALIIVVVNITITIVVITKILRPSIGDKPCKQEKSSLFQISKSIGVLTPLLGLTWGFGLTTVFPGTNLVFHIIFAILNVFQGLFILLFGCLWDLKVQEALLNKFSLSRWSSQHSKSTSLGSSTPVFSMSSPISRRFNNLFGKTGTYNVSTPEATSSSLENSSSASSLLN

[2] = target: T1, human GPR116 with C-terminal fused …; test: flow cytometry on cells; saturation binding of FcsFNDC4 or Fc control on HEK293T cells with stable human GPR116-FLAG OE or mock cells; also in excess of sFNDC4 (1 mM) for non-specific binding; 4 °C, PBS with 3% FBS; anti-human IgG-PE; Kd from specific binding; conditions: one partner purified

Kd [1]: 33 ± 10 nM | Kd [2]: 25 ± 5 nM
B1: 6xHis-Fc-sFNDC4 fusion protein (extracellular part of mouse FNDC4 fused with human IgG Fc) (Fc fusion)
chain: RPPSPVNVTVTHLRANSATVSWDVPEGNIVIGYSISQQRQNGPGQRVIREVNTTTRACALWGLAEDSDYTVQVRSIGLRGESPPGPRVHFRTLKGSDRLPSNSSSPGDITVEGLDGERPLQTGE
notes: extracellular part of mouse FNDC4 (sFNDC4), stated as aa 40-160; also called FcFNDC4; FcsF4; not shown: 6xHis, N-terminal, kept; Fc (human IgG), N-terminal, kept
